Laboratory results from publication PMC11660155.

Key:
[1] = target: scCSGal-1–6H M120L Q142AzK-ss-bio (human); assay: BLI; Octet RED96e; streptavidin tips loaded with 60 ug/mL biotinylated scCSGal-1 protein; vWF at 25 ug/mL as analyte; association 600 s, dissociation 150 s; PBS with 0.05% Tween 20 and 0.1% BSA, pH 7.4; 25 °C, 1000 rpm; read-out Rt = response at 600 s
[2] = target: scCSGal-1–6H M120L R141AzK-ss-bio (human); assay: as above

Substance: von Willebrand factor (from UniProt P04275 764-2813) (natural protein)
- Rt (specific BLI response at 600 s) [1]: 0.14 nm
- Rt (specific BLI response at 600 s) [2]: 0.32 nm
